Values of other authors, collected in US5977174A, “Cholinergic compositions and uses thereof” (Neuromedica, Inc., priority 1997, dated 1999).

B1: C84S tPA: tPA variants in which a cysteine at position 84 of the growth factor domain of native tPA is replaced by serine (protein, UniProt P00750 36-562, looked up, variant C84S)
Tissue-type plasminogen …: SYQVICRDEKTQMIYQQHQSWLRPVLRSNRVEYCWCNSGRAQCHSVPVKSCSEPRCFNGGTCQQALYFSDFVCQCPEGFAGKCSEIDTRATCYEDQGISYRGTWSTAESGAECTNWNSSALAQKPYSGRRPDAIRLGLGNHNYCRNPDRDSKPWCYVFKAGKYSSEFCSTPACSEGNSDCYFGNGSAYRGTHSLTESGASCLPWNSMILIGKVYTAQNPSAQALGLGKHNYCRNPDGDAKPWCHVLKNRRLTWEYCDVPSCSTCGLRQYSQPQFRIKGGLFADIASHPWQAAIFAKHRRSPGERFLCGGILISSCWILSAAHCFQERFPPHHLTVILGRTYRVVPGEEEQKFEVEKYIVHKEFDDDTYDNDIALLQLKSDSSRCAQESSVVRTVCLPPADLQLPDWTECELSGYGKHEALSPFYSERLKEAHVRLYPSSRCTSQHLLNRTVTDNMLCAGDTRSGGPQANLHDACQGDSGGPLVCLNDGRMTLVGIISWGLGCGQKDVPGVYTKVTNYLDWIRDNMRP
in vivo half life vs native tPA: longer in vivo half life than native tPA
